Data reported in patent US20150355179A1, “CDKACT BIOSENSORS-FLUORESCENT POLYPEPTIDE TO PROBE THE ACTIVITY OF CDK/CYCLIN KINASES IN VITRO, IN CELLULO AND IN VIVO” (CENTRE NATIONAL DE LA RECHERCHE SCIENTIFIQUE (CNRS), priority 2012, published 2015).

How the values were obtained:
CDK4/Cyclin D = biological target: T1, CDK4/Cyclin D (Homo sapiens, UniProt P11802); experiment: Real-time fluorescence kinase assay with recombinant CDK4/Cyclin D; type: biochemical; settings: dependent on MgCl2/ATP
T1 construct: made in house; host or cells: E. coli
Experimental: (§1) Fluorescence kinase assays were performed in 96-well plates in a thermostated chamber (Polarstar BMG) at 30° C. in 200 ul phosphate buffer saline, pH 7.2, 150 mM NaCl, in the presence of 5 mM MgCl2, 0.5 mM ATP, except when stated otherwise. The fluorescence of Cy3-labelled CDKACTH1 with recombinant CDK/Cyclin complexes or with cell extracts was monitored over time. Changes in Cy3 fluorescence emission were recorded at 590 nm following excitation at 544 nm. In all experiments, the fluorescence of CDKACTH1-Cy3 alone was substracted from all other values. Data analysis and curve fitting were performed using the GraFit Software (Erathicus Ltd).
(§2) To address the issue of specificity, we asked whether other kinases could phosphorylate and thereby affect the fluorescence of CDKACTH1. We first examined CDK1/Cyclin B and CDK4/Cyclin D (FIGS. 3A and B).

CDK2/Cyclin A = biological target: T2, CDK2/Cyclin A (Homo sapiens, UniProt P24941); experiment: Real-time fluorescence kinase assay with recombinant active CDK2/Cyclin A; type: biochemical
T2 construct: made in house; host or cells: E. coli
Experimental: (§3) In order to characterize CDKACT-H1 biosensor in vitro, we first asked whether it could be used to monitor recombinant kinase activity in a real-time assay.
as §1, §3
In vitro characterization was performed as described in Example 2. […] Assays were performed at 30° C. for 1600s. Fluorescence emission of Cy5 was measured at 675 nm following excitation at 645 nm on Polarstar™ fluorimeter.
Assays were performed at 30° C. for 1600s. Fluorescence emission of Cy3 was measured at 590 nm following excitation at 544 nm on Polarstar™ fluorimeter.

Plk1 = Plk1 (Homo sapiens, UniProt P53350); experiment: Real-time fluorescence kinase assay with Plk1 kinase (specificity); type: biochemical; settings: 25 nM CDKACTH1, 25, 50, 75 nM Plk1
Experimental: as §1, §2

Plk3 = Plk3 (Homo sapiens, UniProt Q9H4B4); experiment: Real-time fluorescence kinase assay with Plk3 kinase (specificity); type: biochemical; settings: 25 nM CDKACTH1, 25, 50, 75 nM Plk3
Experimental: as §1, §2

GST-CDK1-Cyclin B = biological target: T3, GST-CDK1-Cyclin B (Homo sapiens, UniProt P06493); experiment: Radioactive endpoint kinase assay with GST-CDK1-Cyclin B; type: biochemical; settings: radioactive gamma-ATP, 30 min at 30° C., histone H1 positive control
T3 construct: made in house; host or cells: E. coli

GST-CDK2/Cyclin A = biological target: T4, GST-CDK2/Cyclin A (Homo sapiens, UniProt P24941); experiment: Radioactive endpoint kinase assay with GST-CDK2/Cyclin A; type: biochemical; settings: radioactive gamma-ATP, 30 min at 30° C., histone H1 positive control
T4 construct: made in house; host or cells: E. coli
Experimental: In order to characterize […]1 biosensor in vitro, we first asked whether it could be used to monitor recombinant kinase activity in a real-time assay. […] A kinase assay was performed by addition of GST-CDK2/CIV complexed with His-Cyclin A to […]1, in the presence of 0.5 mM ATP and 5 mM MgCl2, and […]1 fluorescence was monitored over time. Phosphorylation of 5 uM […]1 or histone H1 were performed in 50 mM Tris pH 7.5, 5 mM MgCl2, 0.5 mM ATP, and 33P-gamma-ATP for 30 min at 30° C. The reaction was stopped by addition of Laemmli buffer, and samples were run on SDS-PAGE then exposed by autoradiography.

[1] = Solubility of the biosensor after removal of the GST tag; type: physicochemical
Experimental: The […]1 biosensor was engineered by cloning residues 367-603 of PBD from Plk1 into the pGex6[…]. […]1 was expressed in E. coli, then purified on High performance glutathione Sepharose in 50 mM TrisHCl, pH 7.4, 150 mM NaCl, then further purified by Gel Filtration chromatography. […] Following purification, […]1 was labelled with a 10fold molar excess Cy3-maleimide and further purified on NAPS columns to remove excess label.

CDK1/Cyclin B = biological target: T5, CDK1/Cyclin B (Homo sapiens, UniProt P06493); experiment: Real-time fluorescence kinase assay with recombinant CDK1/Cyclin B; type: biochemical
T5 construct: made in house; host or cells: E. coli
Experimental: as §1, §2

T5 sequence (P06493 whole entry, species assumed): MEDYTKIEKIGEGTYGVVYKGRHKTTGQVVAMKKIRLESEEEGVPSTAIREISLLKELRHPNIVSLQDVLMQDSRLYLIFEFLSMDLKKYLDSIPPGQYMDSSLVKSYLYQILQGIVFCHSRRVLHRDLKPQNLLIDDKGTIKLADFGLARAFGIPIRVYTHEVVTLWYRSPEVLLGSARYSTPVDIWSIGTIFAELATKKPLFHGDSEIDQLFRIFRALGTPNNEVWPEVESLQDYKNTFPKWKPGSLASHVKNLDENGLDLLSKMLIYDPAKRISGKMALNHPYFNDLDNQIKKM
T5 sequence (P14635 whole entry partner, species assumed): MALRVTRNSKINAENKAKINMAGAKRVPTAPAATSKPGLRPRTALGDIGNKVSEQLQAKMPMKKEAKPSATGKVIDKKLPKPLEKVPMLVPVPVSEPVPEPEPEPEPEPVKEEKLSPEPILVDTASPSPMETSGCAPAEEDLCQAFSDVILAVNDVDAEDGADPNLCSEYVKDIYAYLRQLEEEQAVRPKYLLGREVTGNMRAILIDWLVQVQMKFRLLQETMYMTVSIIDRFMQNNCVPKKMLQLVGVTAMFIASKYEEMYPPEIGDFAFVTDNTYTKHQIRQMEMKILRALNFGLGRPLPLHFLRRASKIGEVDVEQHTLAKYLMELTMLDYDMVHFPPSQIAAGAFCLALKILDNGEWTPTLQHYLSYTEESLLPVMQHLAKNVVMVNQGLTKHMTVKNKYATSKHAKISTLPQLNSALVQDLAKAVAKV
T1 sequence (P11802 whole entry, species assumed): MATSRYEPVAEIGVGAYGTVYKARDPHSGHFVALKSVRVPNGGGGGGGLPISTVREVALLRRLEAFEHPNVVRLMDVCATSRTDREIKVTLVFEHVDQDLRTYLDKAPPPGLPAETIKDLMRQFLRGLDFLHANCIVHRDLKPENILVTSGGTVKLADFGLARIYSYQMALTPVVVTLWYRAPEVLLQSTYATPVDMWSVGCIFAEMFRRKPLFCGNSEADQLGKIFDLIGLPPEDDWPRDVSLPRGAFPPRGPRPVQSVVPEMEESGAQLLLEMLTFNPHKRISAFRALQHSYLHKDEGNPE
T1 sequence (P24385 whole entry partner, species assumed): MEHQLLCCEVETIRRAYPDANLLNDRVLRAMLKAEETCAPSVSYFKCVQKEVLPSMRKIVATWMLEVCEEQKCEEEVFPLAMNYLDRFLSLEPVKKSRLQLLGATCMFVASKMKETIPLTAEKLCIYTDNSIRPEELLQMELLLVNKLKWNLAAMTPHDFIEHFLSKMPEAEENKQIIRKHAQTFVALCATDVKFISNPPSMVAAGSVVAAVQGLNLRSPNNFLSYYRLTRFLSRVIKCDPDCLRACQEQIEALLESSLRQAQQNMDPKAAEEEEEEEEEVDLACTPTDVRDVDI
Plk1, sequence (P53350 whole entry): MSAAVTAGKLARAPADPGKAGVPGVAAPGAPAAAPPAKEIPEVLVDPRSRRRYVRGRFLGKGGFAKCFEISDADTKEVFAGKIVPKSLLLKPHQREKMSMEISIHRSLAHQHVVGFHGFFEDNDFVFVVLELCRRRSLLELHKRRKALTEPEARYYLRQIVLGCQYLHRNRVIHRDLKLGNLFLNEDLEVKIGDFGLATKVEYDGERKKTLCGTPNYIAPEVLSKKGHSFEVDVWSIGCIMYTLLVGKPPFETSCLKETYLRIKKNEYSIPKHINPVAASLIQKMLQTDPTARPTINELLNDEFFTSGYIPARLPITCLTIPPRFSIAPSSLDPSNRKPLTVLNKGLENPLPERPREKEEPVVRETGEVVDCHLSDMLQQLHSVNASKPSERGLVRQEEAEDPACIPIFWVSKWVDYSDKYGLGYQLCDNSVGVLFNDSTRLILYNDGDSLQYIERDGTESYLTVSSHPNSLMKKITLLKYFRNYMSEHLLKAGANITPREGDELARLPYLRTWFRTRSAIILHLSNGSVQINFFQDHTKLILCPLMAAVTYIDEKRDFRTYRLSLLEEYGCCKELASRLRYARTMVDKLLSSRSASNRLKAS
T3 sequence (P06493 whole entry, species assumed): as the sequence (P06493 whole entry, species assumed) above
T3 sequence (P14635 whole entry partner, species assumed): as the sequence (P14635 whole entry partner, species assumed) above
Plk3, sequence (Q9H4B4 whole entry, species assumed): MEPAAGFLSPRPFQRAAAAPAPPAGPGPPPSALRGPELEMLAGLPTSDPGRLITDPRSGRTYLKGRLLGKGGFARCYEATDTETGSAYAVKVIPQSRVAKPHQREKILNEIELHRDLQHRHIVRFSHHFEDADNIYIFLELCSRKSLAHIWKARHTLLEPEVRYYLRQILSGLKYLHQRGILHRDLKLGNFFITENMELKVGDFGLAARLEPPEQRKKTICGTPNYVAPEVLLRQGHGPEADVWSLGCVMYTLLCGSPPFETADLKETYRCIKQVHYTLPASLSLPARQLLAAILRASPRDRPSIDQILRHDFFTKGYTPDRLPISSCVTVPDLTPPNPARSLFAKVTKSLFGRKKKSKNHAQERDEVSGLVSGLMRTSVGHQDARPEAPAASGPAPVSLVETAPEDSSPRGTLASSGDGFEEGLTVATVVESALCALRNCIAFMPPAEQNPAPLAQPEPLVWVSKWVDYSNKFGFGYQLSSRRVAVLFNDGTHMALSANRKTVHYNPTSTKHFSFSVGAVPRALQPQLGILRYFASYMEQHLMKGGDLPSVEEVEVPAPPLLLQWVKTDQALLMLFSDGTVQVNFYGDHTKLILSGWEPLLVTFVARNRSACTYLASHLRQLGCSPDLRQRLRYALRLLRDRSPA

| Molecule | change in CDKACTH1 fluorescence induced by the kinase (CDK4/Cyclin D) | sensor concentration giving the best response (CDK2/Cyclin A; for 25-50 nM CDK2/CyclinA) | change in CDKACTH1 fluorescence induced by the kinase (Plk1) | change in CDKACTH1 fluorescence induced by the kinase (Plk3) | phosphorylation of the biosensor in standard radioactive kinase assay (GST-CDK1-Cyclin B) | phosphorylation of the biosensor in standard radioactive kinase assay (GST-CDK2/Cyclin A) | solubility upon removal of the GST tag [1] | phosphorylation of the biosensor by the kinase (fluorescence assay) (CDK1/Cyclin B) | sensor concentration giving the optimal response (CDK1/Cyclin B; for 50-100 nM CDK1/Cyclin B) | competition assay: effect on phosphorylation of CDKACTH1 (CDK2/Cyclin A; 25 nM CDKACTH1-Cy3, 25 nM CDK2/Cyclin A, 25 or 100 nM unlabelled CDKACTH1, 25 or 500 nM histone) |
| --- | --- | --- | --- | --- | --- | --- | --- | --- | --- | --- |
| CDKACTH1 (protein, left off: a dimerising Fc or GST) GEVVDSHLSDMLQQLHSVNASKPSERGLVRQEEAEDPASIPIFWVSKWVDYSDKYGLGYQLSDNSVGVLFNDSTRLILYNDGDSLQYIERDGTESYLTVSSHPNSLMKKITLLKYFRNYMSEHLLKAGANITPREGDELARLPYLRTWFRTRSAIILHLSNGSVQINFFQDHTKLILSPLMAAVTYIDEKRDFRTYRLSLLEEYGSSKELASRLRYARTMVDKLLSSRSASNRLKASPGAGGTGGLPGGGGCSTPKKAKKL | reminiscent of CDK2/Cyclin A | 25 nM | did not induce any significant changes | did not induce any significant changes | is phosphorylated | is phosphorylated | complete precipitation | indeed phosphorylated | 10 nM | – |
| unlabelled sensor: CDKACTH1 biosensor without fluorescent label, used as competitive substrate (protein, left off: a dimerising Fc or GST) GEVVDSHLSDMLQQLHSVNASKPSERGLVRQEEAEDPASIPIFWVSKWVDYSDKYGLGYQLSDNSVGVLFNDSTRLILYNDGDSLQYIERDGTESYLTVSSHPNSLMKKITLLKYFRNYMSEHLLKAGANITPREGDELARLPYLRTWFRTRSAIILHLSNGSVQINFFQDHTKLILSPLMAAVTYIDEKRDFRTYRLSLLEEYGSSKELASRLRYARTMVDKLLSSRSASNRLKASPGAGGTGGLPGGGGCSTPKKAKKL | – | – | – | – | – | – | – | – | – | prevented full phosphorylation |
